The target in test [1] is T1, plasmin (Homo sapiens, UniProt P00747). The experiment in a line: Inhibition of plasmin hydrolysis of succinyl-Ala-Phe-Lys-(F3Ac)AMC, tight-binding fit (Ki used as KD). In kind it is biochemical. From the text:
A second appropriate method of measuring KD is to measure the inhibitory activity against the enzyme. […] Here, we use the measured Ki as a direct measure of KD.
Inhibition of hydrolysis of succinyl-Ala-Phe-Lys-(F3Ac)AMC (a methyl coumarin) (Sigma Chemical, St. Louis, Mo.) by plasmin at 2.5×10^−8 M with varying amount of inhibitor were fit to the standard form for a tight-binding […] by least-squares.

For test [2], the target named is T1, plasmin. The conditions noted are these: cited from earlier work; for pKd: Table 4, plasmin, read-out: Affinity KD.
Test [3] has as its target T1, plasmin. Nature of the test: Binding of display phage (KuDom on M13 gIIIp) to plasmin beads. The conditions noted are these: in words.

pKd, pKi: −log10 of the molar value. Several values for one entry are separate records, joined by “and”; a condition that tells them apart may be missing. Identical values can stand only once. Like-named read-outs stand apart in the source and are kept apart here. Bridges are numbered along the chain shown (N, C = ends). Where no end group is shown, it is not given here.

Results on nine substances are retold here after patent publication US7919462B2, “Inhibitors of human plasmin derived from the Kunitz domains” (Dyax Corp., priority 1994, dated 2011).

T1 sequence (P00747 581-810 limits assumed): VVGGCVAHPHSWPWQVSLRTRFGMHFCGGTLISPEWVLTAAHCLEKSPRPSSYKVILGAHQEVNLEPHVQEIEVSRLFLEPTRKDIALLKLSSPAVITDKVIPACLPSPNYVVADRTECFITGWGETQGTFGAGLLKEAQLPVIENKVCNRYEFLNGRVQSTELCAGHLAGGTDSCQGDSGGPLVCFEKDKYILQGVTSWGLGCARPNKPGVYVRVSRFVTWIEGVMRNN
T1 sequence (P00747 97-580 partner limits assumed): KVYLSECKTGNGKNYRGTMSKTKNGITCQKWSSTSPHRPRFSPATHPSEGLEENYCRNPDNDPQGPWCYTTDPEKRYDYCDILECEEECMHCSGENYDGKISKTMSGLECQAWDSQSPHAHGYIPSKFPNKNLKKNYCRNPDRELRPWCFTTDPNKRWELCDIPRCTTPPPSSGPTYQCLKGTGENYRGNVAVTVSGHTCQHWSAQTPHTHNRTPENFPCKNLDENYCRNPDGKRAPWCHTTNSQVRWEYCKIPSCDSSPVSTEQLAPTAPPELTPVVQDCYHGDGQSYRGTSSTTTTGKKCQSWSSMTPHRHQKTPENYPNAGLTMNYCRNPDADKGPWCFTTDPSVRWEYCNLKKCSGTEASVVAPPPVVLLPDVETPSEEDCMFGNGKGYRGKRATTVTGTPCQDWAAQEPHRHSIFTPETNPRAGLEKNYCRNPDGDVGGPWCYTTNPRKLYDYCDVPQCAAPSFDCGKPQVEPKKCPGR

Consider “QS4: LACI-K1 derivative that binds human plasmin, SEQ ID NO. 4 (MHSFCAFKADDGPCKARFERFFFNIFTRQCEQFYYGGCDGNQNRFESLEECKKMCTRD; Synthetically generated peptide)”, for which the pKi in the test with plasmin [1] (150 mM salt, read-out: Ki for plasmin) is around 8.70. The pKd in the test with plasmin [1] (Table 4, plasmin, read-out: Affinity KD) was 8.70. Moreover, the “potency class for plasmin below the rank order of Table 8” value with plasmin [1] (class words wrapped over r53-r54: Highly Superior / very potent / potent, order SPI11<BPTI<SPI23=SPI51<SPI47<QS4<SPI22<SPI54<SPI43) is reported as “potent”.

“MHSFCAFKAETGPCRGKFDRWFFNIFTRQCESFHYGGCKGNQNRFESLEECKKMCTRD (disulfide 5-55, 14-38, 30-51) [SPI43]” had a negative logarithm of the Ki (pKi) at plasmin [1] (Ki for plasmin) below 8.40.

Consider “Human APP-I: human Kunitz domain APP-I, SEQ ID NO. 39 (VREVCSEQAETGPCRAMISRWYFDVTEGKCAPFFYGGCGGNRNNFDTEEYCMAVCGSA; listed as Homo sapiens)”, for which the pKi in the test with plasmin [2] (AUER88, SCHN86, DENN94a) is 6.65. Further, the pKd with plasmin [2] (KIDO88) was 10.12; with plasmin [2] (literature values (APP-I: DENN94a)) it was 6.65.

“MHSFCAFKADGGPCKGKFPRFFFNIFTRQCEEFIYGGCEGNQNRFESLEECKKMCTRD (disulfide 5-55, 14-38, 30-51) [SPI22]” had a negative-log Kd (pKd) on plasmin [1] (Affinity KD) below 8.70.

With “SPI15: LACI-K1 derivative selected for plasmin binding, SEQ ID NO. 41 (Table 6: 90) (MHSFCAFKAESGPCRARFDRWFFNIFTRQCEEFIYGGCEGNQNRFESLEECKKMCTRD; Synthetically generated peptide)”, the “binding of clonally pure phage compared to BPTI display phage” value with plasmin [3] was “superior to BPTI phage”.

“MHSFCAFKAETGPCRARFDRWFFNIFTRQCEEFIYGGCEGNQNRFESLEECKKMCTRD (disulfide 5-55, 14-38, 30-51) [SPI11]”: the pKd was 10.06 at plasmin [1] (Affinity KD) and above 10.00 at plasmin [1] (affinity for plasmin). The pKi on plasmin [1] (Ki for plasmin) is 10.06 and ~10.06.

In the case of “SPI08: LACI-K1 derivative selected for plasmin binding, SEQ ID NO. 42 (MHSFCAFKADGGPCRARFERFFFNIFTRQCEEFIYGGCEGNQNRFESLEECKKMCTRD; Synthetically generated peptide)”, in the test with plasmin [3], the “binding of clonally pure phage compared to BPTI display phage” value is “superior to BPTI phage”.

Take “MHSFCAFKADDGPCKARFERFFFNIFTRQCEQFTYGGCGGNQNRFESLEECKKMCTRD (disulfide 5-55, 14-38, 30-51) [NS4]”: at plasmin [1] (Ki for plasmin, 150 mM salt), the pKi was around 8.70.

Consider “MHSFCAFKADSGPCRARFDRWFFNIFTRQCTRFPYGGCGGNQNRFESLEECKKMCTRD (disulfide 5-55, 14-38, 30-51) [SPI54]”, for which, at plasmin [1] (Ki for plasmin, 150 mM salt), the pKi was below 8.40.

Usually pKi stands for the Ki on a negative log10 scale, so that one unit is a factor of ten. By pKd is commonly meant −log10 of the Kd, conventionally taken in molar units.
